Laboratory results reported in publication PMC9009071, “Pyruvate kinase, a metabolic sensor powering glycolysis, drives the metabolic control of DNA replication” (BMC Biology, 2022).

Assays:
PykA = target: T1, PykA (Bacillus subtilis, UniProt P80885); assay: LDH-coupled NADH oxidation at […] nm, Michaelis-Menten fit; type: biochemical; conditions: 2 mM ADP, 10 mM MgCl2, 50 mM KCl, 10 mM Tris-HCl pH 7.5, 25 °C; no effector added
T1 construct: gene pyk; full length, 585 residues (1755 bp); N-terminal His-MBP tag removed by TEV; E. coli Rosetta(DE3); homotetramer
T1 sequence (P80885 2-585): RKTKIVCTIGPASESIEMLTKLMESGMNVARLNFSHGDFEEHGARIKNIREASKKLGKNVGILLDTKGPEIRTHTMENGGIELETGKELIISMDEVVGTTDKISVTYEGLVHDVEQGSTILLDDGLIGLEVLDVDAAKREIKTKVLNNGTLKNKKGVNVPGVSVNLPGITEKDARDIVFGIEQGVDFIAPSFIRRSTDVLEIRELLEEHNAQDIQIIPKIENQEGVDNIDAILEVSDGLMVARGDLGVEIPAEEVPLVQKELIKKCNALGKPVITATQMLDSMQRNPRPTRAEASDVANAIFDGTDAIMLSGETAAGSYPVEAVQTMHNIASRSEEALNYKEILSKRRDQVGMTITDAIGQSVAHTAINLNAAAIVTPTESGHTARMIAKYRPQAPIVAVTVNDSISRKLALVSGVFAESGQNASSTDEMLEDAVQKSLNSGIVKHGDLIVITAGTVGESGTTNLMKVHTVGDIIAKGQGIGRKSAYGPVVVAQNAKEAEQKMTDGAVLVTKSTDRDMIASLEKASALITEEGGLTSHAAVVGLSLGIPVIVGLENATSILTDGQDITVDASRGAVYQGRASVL

[1] = target: the molecule itself; assay: native MS; purified PykA, 4 uM, in 200 mM ammonium acetate pH 6.8; nano-electrospray on a modified Q-Tof; self-association (tetramer)
PykA (pyruvate kinase) = target: T2, PykA (pyruvate kinase) (Bacillus subtilis, UniProt P80885 1-585); assay: EMSA; 1,250 nM PykA tetramer, 1 nM DNA, 10 mM Mg2+, no DnaE; EMSA: 50 mM Tris-HCl pH 7.5, 50 mM NaCl, 10 mM MgCl2, 10 min at 37 °C, 1 nM DNA; conditions: protein: recombinant; tags: none (N-terminal His-MBP removed by TEV); chain copies: 4; label: 5'-32P on the 15mer; 15mer pairs with the 3' half of the 30mer; template 5' overhang 15 nt
T2 sequence: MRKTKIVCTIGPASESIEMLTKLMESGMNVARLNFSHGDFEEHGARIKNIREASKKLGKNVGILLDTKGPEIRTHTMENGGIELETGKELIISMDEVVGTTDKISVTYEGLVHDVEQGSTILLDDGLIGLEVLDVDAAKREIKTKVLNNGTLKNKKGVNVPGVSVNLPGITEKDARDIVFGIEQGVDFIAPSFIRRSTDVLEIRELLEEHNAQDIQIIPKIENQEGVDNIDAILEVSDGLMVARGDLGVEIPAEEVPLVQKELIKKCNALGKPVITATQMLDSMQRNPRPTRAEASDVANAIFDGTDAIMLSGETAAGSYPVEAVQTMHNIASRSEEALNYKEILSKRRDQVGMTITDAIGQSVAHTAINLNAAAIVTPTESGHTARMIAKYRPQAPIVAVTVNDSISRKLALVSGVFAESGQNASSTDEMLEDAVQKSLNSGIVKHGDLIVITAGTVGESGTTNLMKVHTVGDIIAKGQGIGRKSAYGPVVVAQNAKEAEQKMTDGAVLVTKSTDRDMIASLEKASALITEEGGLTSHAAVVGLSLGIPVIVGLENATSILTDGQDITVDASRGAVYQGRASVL

purified protein = substrate: C=C(OP(=O)(O)O)C(=O)O; assay: purified protein; type: biochemical, Bacillus subtilis; conditions: 2 mM ADP, 10 mM MgCl2, 50 mM KCl, 10 mM Tris-HCl pH 7.5, 25 °C, no effector added, Hill coefficient n = 0.8111

With `C=C(OP(=O)(O)O)C(=O)O` [PEP] the Km (PykA) was 1700 µM.

B1: Bacillus subtilis pyruvate kinase PykA (enzyme, UniProt P80885 1-585, looked up)
chain: MRKTKIVCTIGPASESIEMLTKLMESGMNVARLNFSHGDFEEHGARIKNIREASKKLGKNVGILLDTKGPEIRTHTMENGGIELETGKELIISMDEVVGTTDKISVTYEGLVHDVEQGSTILLDDGLIGLEVLDVDAAKREIKTKVLNNGTLKNKKGVNVPGVSVNLPGITEKDARDIVFGIEQGVDFIAPSFIRRSTDVLEIRELLEEHNAQDIQIIPKIENQEGVDNIDAILEVSDGLMVARGDLGVEIPAEEVPLVQKELIKKCNALGKPVITATQMLDSMQRNPRPTRAEASDVANAIFDGTDAIMLSGETAAGSYPVEAVQTMHNIASRSEEALNYKEILSKRRDQVGMTITDAIGQSVAHTAINLNAAAIVTPTESGHTARMIAKYRPQAPIVAVTVNDSISRKLALVSGVFAESGQNASSTDEMLEDAVQKSLNSGIVKHGDLIVITAGTVGESGTTNLMKVHTVGDIIAKGQGIGRKSAYGPVVVAQNAKEAEQKMTDGAVLVTKSTDRDMIASLEKASALITEEGGLTSHAAVVGLSLGIPVIVGLENATSILTDGQDITVDASRGAVYQGRASVL
notes: Pyruvate kinase PykA of Bacillus subtilis; 1755 bp fragment carrying the pykA gene amplified from genomic DNA and cloned in p2CT; theoretical monomer mass 62,314.9 Da; The forward primer PyKAF starts at the codon for Arg2 (AGA AAA ACT ...), so the first methionine is probably absent; A few vector residues probably remain after TEV cleavage; also called full length PykA; BsuPykA; source: E. coli …
B1 was tested, and the “stoichiometry N” value [1] was 4.

B2: 15mer primer annealed to 30mer template (dsDNA)
DNA 1: AAGGGGGTGTGTGTG
DNA 2: ACACACACACACACACACACACACCCCCTT
B2: no binding (PykA (pyruvate kinase)).

B3: PykA (Bacillus subtilis subsp. subtilis str. 168) (protein)
chain: RKTKIVCTIGPASESIEMLTKLMESGMNVARLNFSHGDFEEHGARIKNIREASKKLGKNVGILLDTKGPEIRTHTMENGGIELETGKELIISMDEVVGTTDKISVTYEGLVHDVEQGSTILLDDGLIGLEVLDVDAAKREIKTKVLNNGTLKNKKGVNVPGVSVNLPGITEKDARDIVFGIEQGVDFIAPSFIRRSTDVLEIRELLEEHNAQDIQIIPKIENQEGVDNIDAILEVSDGLMVARGDLGVEIPAEEVPLVQKELIKKCNALGKPVITATQMLDSMQRNPRPTRAEASDVANAIFDGTDAIMLSGETAAGSYPVEAVQTMHNIASRSEEALNYKEILSKRRDQVGMTITDAIGQSVAHTAINLNAAAIVTPTESGHTARMIAKYRPQAPIVAVTVNDSISRKLALVSGVFAESGQNASSTDEMLEDAVQKSLNSGIVKHGDLIVITAGTVGESGTTNLMKVHTVGDIIAKGQGIGRKSAYGPVVVAQNAKEAEQKMTDGAVLVTKSTDRDMIASLEKASALITEEGGLTSHAAVVGLSLGIPVIVGLENATSILTDGQDITVDASRGAVYQGRASVL
notes: full length, 585 residues (1755 bp); N-terminal His-MBP tag removed by TEV; E. coli Rosetta(DE3); homotetramer
For B3, the K0.5 (purified protein) was 2.7 mM.
